# From publication PMC3164656, “Burkholderia cenocepacia BC2L-C Is a Super Lectin with Dual Specificity and Proinflammatory Activity” (PLoS Pathogens, 2011)
# B1: BC2L-C: soluble hexameric lectin from Burkholderia cenocepacia with fucose- and mannose/heptose-binding domains, recombinant (protein)
# chain: MADSQTSSNRAGEFSIPPNTDFRAIFFANAAEQQHIKLFIGDSQEPAAYHKLTTRDGPREATLNSGNGKIRFEVSVNGKPSATDARLAPINGKKSDGSPFTVNFGIVVSEDGHDSDYNDGIVVLQWPIG
# How the values were obtained:
# B. cenocepacia K56-2 = experiment: Mannose-dependent lectin extraction from bacterial surface (Western blot); design: species or system Burkholderia cenocepacia; settings: 50 mM D-mannose, 5 min, FLAG-tagged lectins
# Procedure: Culture supernatant proteins were precipitated with trichloroacetic acid as described previously The protein concentration was determined by Bradford assay (Bio-Rad) and 4 µg of protein were loaded on a 18% SDS-PAGE gel. After electrophoresis, gels were transferred to nitrocellulose membranes for immunoblot analysis. The membranes were incubated with the 4RA2 monoclonal antibody (Neoclone) cross-reacting with the B. cenocepacia RNA polymerase subunit alpha (cytosolic protein, cell lysis control) and the FLAG M2 monoclonal antibody (Sigma). The Alexa Fluor 680 goat anti-mouse IgG (Molecular Probes) was used as a secondary antibody. Detection was performed using the Odyssey Infrared Imager (LI-COR Biosciences).
# Overnight cultures were diluted to an OD600 nm of 0.03 in 50 mL LB and grown at 37°C for 8 h. Cells were then centrifuged at 5000 g for 10 min. The pellet was washed twice with 25 mL of phosphate buffered saline (PBS) and finally resuspended in 1.5 mL PBS. Five hundred µL aliquots were placed into two eppendorf tubes to which 500 µL of PBS or 500 µL of 100 mM D-mannose made in PBS (50 mM final concentration) was added. Samples were gently mixed by inversion and incubated for 5 min at room temperature. Samples were centrifuged at 6000 g for 5 min, supernatants were collected (800 µL) and filter-sterilized using […] filters. […]
# [1] = target: BC2L-C, soluble lectin from Burkholderia cenocepacia (whole protein) (Burkholderia cenocepacia) (UniProt B4EH87); experiment: SEC-MALS; Superdex 200, 20 mM Tris, 250 mM NaCl, 1 mM CaCl2, pH 7.5; loaded at 4.2 mg/mL BC2L-C, 7.5 mg/mL BC2L-C-nt, 10.7 mg/mL BC2L-C-ct; MALLS with refractometry
# BC2L-C-nt = system: BC2L-C-nt; design: method as in PMID 20152153; settings: cited from earlier work
# [2] = target: BC2L-C-nt, N-terminal TNF-α-like domain of BC2L-C (Burkholderia cenocepacia); experiment: SEC-MALS; Superdex 200, 20 mM Tris, 250 mM NaCl, 1 mM CaCl2, pH 7.5; loaded at 4.2 mg/mL BC2L-C, 7.5 mg/mL BC2L-C-nt, 10.7 mg/mL BC2L-C-ct; MALLS with refractometry
# [3] = target: BC2L-C-ct, C-terminal domain of BC2L-C (Burkholderia cenocepacia); experiment: as above
# BEAS-2B cells = experiment: IL-8 production by respiratory epithelial cells (ELISA); type: cell-based, human; settings: 0.3 µM, 15 h, ELISA of supernatants
# Procedure: BC2L-C and its separate domains were used for the stimulation of the human bronchial cell line BEAS-2B obtained from the American Type Cell Collection (Manassas, VA). Cells were maintained in serial passage in F-12K culture medium supplemented with 10% FCS, 1% penicillin and streptomycin, 1% glutamine and 10 mM HEPES in 75 cm2 culture flasks and seeded at 5×10^4 on 24-well plates 3 days before stimulation. In all experiments, BEAS-2B cells were stimulated during 15 hours with the different agonists in a 300 µL medium. IL-8 concentrations in cell culture supernatants were determined using a Duo-Set ELISA kit. Duo-Set ELISA kit and the recombinant human TNF-α were obtained from R&D Systems (Minneapolis, MN).
molecule,measurement,setting,value
"OC[C@H]1OC(O)[C@@H](O)[C@@H](O)[C@@H]1O (stereo partly drawn) [D-Man, D-mannose]",release of surface-bound lectins into supernatant,B. cenocepacia K56-2,BC2L-B and -C lectins are released into the supernatant
"BC2L-C, soluble lectin from Burkholderia cenocepacia (whole protein) (from UniProt B4EH87 1-129) (natural protein)",stoichiometry N,[1],6
C[C@H](O)[C@@H](O)[C@@H](O)[C@H](O)C=O [fucose],binding of isolated BC2L-C-nt domain,BC2L-C-nt,binds strongly to fucose
"BC2L-C-nt, N-terminal TNF-α-like domain of BC2L-C (domain or fragment)",stoichiometry N,[2],3
"BC2L-C-ct, C-terminal domain of BC2L-C (domain or fragment)",stoichiometry N,[3],2
B1,IL-8 production,BEAS-2B cells,markedly increase in IL-8 production
